Reference: US20240067721A1 (UNIVERSITY OF BIRMINGHAM, published 2024)
Numbering of substitutions follows the chain as printed.

B1: Nanobody 2 (Nb2), with C-terminal HA and His tags (VHH)
VHH: QVQLQESGGGLVQPGGSLRLSCAAAGFTFDYYAIAWFRQAPGKEREGVSCISSSDGTTYYADSVKGRFTISKDNAKNTMYLQMNSLKPEDTAVYYCATSPLYSTNDRCISEDYDYWGQGTQVTVSSAAAYPYDVPDYGSHHHHHH
notes: Tagged form (detected with anti-His in ELISA and flow cytometry)
B2: Nanobody 25 (Nb25) (VHH)
VHH: B1 VHH with A25S, F29L, Y31N, A35G, T57R, K72R, T104D, N105S, S110W, D112E
B3: Nanobody 44 (Nb44) (VHH)
VHH: QVQLQESGGGLVQPGGALRLSCAASGFTLDYYAIGWFRQAPGKEREAVSCISSSDGSTYYADSVKGRFTISRDNAKNTVYLQMNSLKPEDTAVYYCATDPFYSDINCKSYEYAYWGQGTQVTVSSAAAYPYDVPDYGSHHHHHH
B4: Nanobody 21 (Nb21), with C-terminal HA and His tags (VHH)
VHH: QVQLQESGGGLVQPGGSLRLSCAASGRTFTRSIMGWFHQAPGKEREFLAGISWSGANTYYADSVRGRFTISRDNAKNTVSLQMNSLNPEDTAVYYCAADPSHPGSLISTRRSDYDSWGRGTQVTVSSAAAYPYDVPDYGSHHHHHH
B5: Nanobody 35 (Nb35), with C-terminal HA and His tags (VHH)
VHH: QVQLQESGGGLVQAGGSLRLSCAASGVTFDSAAMAWFRQVPGKEREFVAVISTESGGRTDHADSVKGRFLISRDNARHMVYLQMNSLNPEDTAVYYCASSLLYCSASGCYANRDSYDYWGQGTQVTVSSAAAYPYDVPDYGSHHHHHH
B6: Nanobody 1 (Nb1) (VHH)
VHH: QVQLQESGGGLVQAGGSLRLSCASSGFTFSGYQLAWFRHVAPGKEREFVAAIRWSGGITWYADSVKGRFTISRDNAKNTMYLQMNSLKPEETAVYYCAASPLYSNNYLLPDNYDYWGQGTQVTVSSAAAYPYDVPDYGSHHHHHH
B7: Nanobody 5 (Nb5) (VHH)
VHH: QVQLQESGGGLVQPGGSLRLSCAASGFTLDSHTIGWFRQAPGKEREGVSGINSSDGSTYYADSVKGRFTISRDNAKNTVYLQMDSLKVEDTAVYYCATTPFSLRGPTWVTPDEFDYWGQGTQVTVSSAAAYPYDVPDYGSHHHHHH
B8: Nanobody 19 (Nb19) (VHH)
VHH: QVQLQESGGGLVQAGGSLRLSCAASGRTFSSDAMGWFRQAPGKEREFVAAIRWSGGSTYYADSVKGRFTISRGNAKNTVYLQMNSLKPEDTAVYYCASSLLNSYYPPDHTSYEYDYWGQGTQVTVSSAAAYPYDVPDYGSHHHHHH
B9: Nanobody 22 (Nb22) (VHH)
VHH: QVQLQESGGGLVQAGGSLRLSCAPSGRTISSVDVGWFRQAPGKEREFVAHVTWSGGSTYAADSVKGRFTVSRDNAKNTVYLQMNSLKPEDTAVYYCAAALNGAFRDSWYPALWDEYDYWGQGTQVTVSSAAAYPYDVPDYGSHHHHHH
B10: Nanobody 33 (Nb33) (VHH)
VHH: QVQLQESGGGLVQAGDSLRLSCAASGRTFSSYVMGWFRQAPGKEREFVAAISWSGGSTYYADSVKGRFTISRDNAKNTVYLQMNSLKPEDTAVYYCAAADPPSFYSDYDWPRDHEYDYWGQGTQVTVSSAAAYPYDVPDYGSHHHHHH
B11: Nanobody 28 (Nb28) (VHH)
VHH: QVQLQESGGGLVQAGDSLRLSCAASGTYSMGWFRQAPGKEREFVAAISWSGGRTNYADSVKGRFTISRDNAKNTVYLQMNSLKPEDTAVYYCSAAIYDNVSSRIGSYTYWGQGTQVTVSS

Experiments:
[1] = target: full length GPVI on transfected DT40 cells (with FcR-γ chain) (UniProt Q9HCN6); assay: cell-based or functional assay
[2] = target: T1, recombinant GPVI-Fc (dimeric; D1 and D2 domains of GPVI fused to the Fc domain from IgG) (human, UniProt Q9HCN6 22-203); assay: SPR (Biacore T200), GPVI-Fc amine-coupled on CM5 chip, Nb2 in solution, 1:1 kinetic fit
T1 construct: range 22-203; also called GPVI-Fcγ; dimeric GPVI; not shown: Factor Xa cleavable junction and Fc domain from IgG (Sigplg+ vector)
T1 sequence (looked up): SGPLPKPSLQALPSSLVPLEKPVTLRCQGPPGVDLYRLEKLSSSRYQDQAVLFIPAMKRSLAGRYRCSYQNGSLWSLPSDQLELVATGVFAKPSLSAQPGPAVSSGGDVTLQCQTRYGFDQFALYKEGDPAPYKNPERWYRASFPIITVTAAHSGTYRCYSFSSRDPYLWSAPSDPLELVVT
Experimental: Surface plasmon resonance experiments were performed using a Biacore T200 instrument (GE Healthcare). GPVI was immobilised directly onto the CM5 chip using amine-coupling. Reference surfaces were blocked using 1M ethanolamine pH 8. All sensograms shown are double reference subtracted and at least two replicates were injected per cycle as well as experimental replicates of n=3. Experiments were performed at 25° C. with a flow rate of 30 μL/min in HBS-P running buffer (10 mM HEPES pH 7.4, 0.15 M NaCl, 0.005% v/v surfactant P20). Each concentration of Nb2 was run as follows; 120 sec injection, 900 sec dissociation. Kinetic analysis was performed using the Biacore T200 Evaluation software using a global fitting to a 1:1 binding model.

[3] = target: T2, GPVI on human washed platelets (human, UniProt Q9HCN6 21-339); assay: cell-based or functional assay
T2 sequence (looked up): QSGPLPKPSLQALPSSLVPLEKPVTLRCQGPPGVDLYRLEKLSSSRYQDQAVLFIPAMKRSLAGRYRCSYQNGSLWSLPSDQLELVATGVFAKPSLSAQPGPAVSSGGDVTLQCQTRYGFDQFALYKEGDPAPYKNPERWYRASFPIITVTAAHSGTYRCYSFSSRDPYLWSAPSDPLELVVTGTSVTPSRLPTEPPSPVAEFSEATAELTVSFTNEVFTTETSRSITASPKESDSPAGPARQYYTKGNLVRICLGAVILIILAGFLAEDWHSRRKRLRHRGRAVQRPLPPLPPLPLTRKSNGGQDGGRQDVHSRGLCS

[4] = target: monomeric GPVI (GPVI-Fc cleaved with Factor Xa, Fc removed) (human) (UniProt Q9HCN6); assay: SPR (Biacore T200), GPVI amine-coupled on CM5 chip, Nb2 in solution, 1:1 kinetic fit; immobilised monomeric GPVI, not GPVI-Fc
[5] = target: T1, recombinant GPVI-Fc (dimeric; D1 and D2 …); assay: solid-phase binding assay, displacement of GPVI-Fc (100 nM) from a collagen surface
[6] = target: T1, recombinant GPVI-Fc (dimeric; D1 and D2 …); assay: solid-phase binding assay: GPVI-Fc coated surface, nanobody 100 nM per the legend (1 µM per paragraph 122), anti-His HRP, Fc-surface signal subtracted, normalised to Nb35 [cont) b]
Experimental: FIG. 1. […] Results were plotted as a percentage of total signalling in the presence of collagen only. Dotted lines represent 100, 60 and 20% signalling levels. Data represent mean values of three experiments performed in triplicate±standard deviation. b) Surface binding assay of one nanobody (100 nM) from each family binding to a GPVI-Fc coated-surface. All the binding results have been normalised to Nb35 which gave the highest readout. Binding of each nanobody to the Fc domain-coated surface was tested and subtracted from the GPVI-Fc readings. Binding was detected using HRP conjugated anti-His antibody. The average binding of all the nanobodies to BSA represents a non-specific binding control. Data represent mean values of three experiments±standard deviation.
The recombinant GPVI used for immunisation and testing consisted of the extracellular D1 and D2 domains fused with the Fc domain from IgG. Immunisation with GPVI-Fc yielded 54 distinct nanobody sequences. The Fc domain was used to test whether the nanobodies recognise this region. The 54 nanobodies were categorized into 33 distinct binding classes on the basis of their complementary determining loop (CDR) 3 regions, which is the region that confers ligand specificity. Nanobodies (1 μM) from each binding class were tested for their ability to recognise a recombinant GPVI-Fc coated surface (FIG. 1b). The degree of nanobody binding varied between classes and could be categorised into strong (>50%), moderate (>20%) and weak binders (<20%). Strong binders included Nb2, 21, 35 and 52. Moderate binders included Nb7, 18, 28 and 54. All other nanobodies were considered to be weak binders.

[7] = target: T3, full length GPVI on transfected DT40 cells (with FcR-γ chain) (UniProt Q9HCN6 21-339); assay: cell-based or functional assay
T3 sequence (looked up): T2 sequence (looked up)

[8] = target: T1, recombinant GPVI-Fc (dimeric; D1 and D2 …); assay: solid-phase binding assay, displacement of GPVI-Fc (100 nM) from a collagen surface (legend of Fig. 4a; differs from the text)

Row | Molecule | binding result [6] | inhibition of collagen-stimulated NFAT reporter activity (nanobody 100 nM, collagen 10 µg/ml) [7] [%] | other results
1 | collagen (Horm collagen I, fibrillar) (ligand) | – | – | fold increase in NFAT activity (luciferase reporter) [1]: 8.3 fold
2 | B1 | – | – | Kd [2]: 0.7 nM; inhibition of collagen-stimulated NFAT reporter activity (nanobody 100 nM, collagen 10 µg/ml) [1]: > 80%; IC50, inhibition of washed platelet aggregation to CRP (10 µg/ml) [3]: 1 nM; IC50, inhibition of washed platelet aggregation to collagen (5 µg/mL) [3]: 172 nM; Kd [4]: 0.58 nM; IC50 [5]: 18 nM
3 | B2 | binds | > 40 | –
4 | B3 | binds | > 40 | –
5 | B4 | – | > 80 | IC50 [8]: 62 nM; IC50, inhibition of washed platelet aggregation to CRP (10 µg/ml) [3]: 22 nM; IC50, inhibition of washed platelet aggregation to collagen (5 µg/mL) [3]: 85 nM; IC50 [5]: 61 nM
6 | B5 | – | – | IC50, inhibition of washed platelet aggregation to CRP (10 µg/ml) [3]: 1 nM; IC50, inhibition of washed platelet aggregation to collagen (5 µg/mL) [3]: 115 nM; IC50 [5]: 39 nM
7 | B6 | – | > 40 | –
8 | B7 | – | > 40 | –
9 | B8 | binds | > 40 | –
10 | B9 | binds | > 40 | –
11 | B10 | binds | > 40 | –
12 | B11 | binds | – | –
